Usually pKd stands for the negative decadic logarithm of the Kd, by convention in mol/L.

For two sequences, Kd and binding results are on record in publication PMC11077950.

The test system of one series is TNfxB3. The series can be described thus: SPR. The following applies: EMSA: PBS (137 mM NaCl, 2.7 mM KCl, 8 mM Na2HPO4, 2 mM KH2PO4), 2 uL glycerin in 20 uL, 80 ng DNA, 5-70 pmol protein, 25 C, 30 min, 30 uL/min …. A general note: A gel shift assay detects complexes by their altered migration in electrophoresis.
Series [1] deals with T1, NfxB T39R T51R (Pseudomonas aeruginosa PAO1) (UniProt P32265).
T1 sequence: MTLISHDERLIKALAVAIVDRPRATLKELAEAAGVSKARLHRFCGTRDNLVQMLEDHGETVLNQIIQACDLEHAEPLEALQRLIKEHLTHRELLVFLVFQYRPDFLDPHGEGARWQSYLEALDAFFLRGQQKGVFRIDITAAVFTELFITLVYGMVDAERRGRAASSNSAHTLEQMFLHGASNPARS
Briefly: EMSA. Particulars: EMSA: PBS (137 mM NaCl, 2.7 mM KCl, 8 mM Na2HPO4, 2 mM KH2PO4), 2 uL glycerin in 20 uL, 80 ng DNA, 5-70 pmol protein, 25 C, 30 min, SPR: PBS, 30 uL/min ….

pKd: −log10 of the molar value.

Take “ATACTAGCTTTGTTCACACCAAAATCAAATGAGTCAATATTGACTTATTTGATTTTTGCGTGGATCATGCGCGGCTTCGAC (double strand) [SPR operator DNA with two inverted repeats, 81 bp]”: in the series with TNfxB3, the pKd was 6.04.

As for “CTCATCGGCAGCAGTTAAATCCATCGGTCACTCTTTATCTATCGCGGGCAGATGCGGGTATTTTGCCTAGAACACTCATTTTTCTCAAAGAGGATACTAGCTTTGTTCACACCAAAATCAAATGAGTCAATATTGACTTATTTGATTTTTGCGTGGATCATGCGCGGCTTCGACTACGTACTGGCTTCGTGCTTGGGTGAGATATGAACAAATTCCGCGAATGGATCAC (double strand) [tnfxB1-tmexC1 intergenic DNA (PtmexC1), EMSA]”, the binding result in series [1] was “binds more weakly”.
